# According to US5981483A, “Compositions comprising modulators of cytokines of the TGF-β superfamily” (Mount Sinai Hospital Corporation, priority 1997, dated 1999):
# Where a SMILES comes first, the peptide text is derived from it. Bridges are numbered along the chain shown (N, C = ends). The star is where a group is joined. Cam = NC(=O)C*
# How the values were obtained:
# [1] = molecular target: T1, TGF-β1 (Homo sapiens, UniProt P01137); test: 3H-Thymidine incorporation in Mv1Lu cells: neutralization of the antiproliferative activity of TGF-β1; assay type: cell-based
# T1 construct: The mature processed cytokines produced from the members of the gene family show almost 100% amino acid identity between species; purchased Collaborative Research (Bedford, Mass.)
# Experimental: Mv1Lu cells were seeded at 20,000 cells/well in a 96 well plate containing 0.2% FCS in α-MEM and incubated with the indicated concentrations of proteins for 18 hr. The cells were then pulsed with 8 μCi/ml methyl-^3 H-thymidine (NEN, Boston, Mass.) for 6 hr. Cells were trypsinized, harvested onto filtermats and counted in a β-Counter. Percent neutralization is defined as incorporation in the presence of 12 pM TGF-β1 alone set at 0%, and incorporation without additions as 100%. The difference in ^3 H-thymidine incorporation between 0% and 100% was 7.5 fold. Each point in FIG. 1 and FIG. 12 represents the mean of duplicate determinations, and the results are representative of three experiments. […] Before use, bovine thyroglobulin was spun twice in a centricon (M.W. cutoff of 10,000 Da) micro-concentrator (Amicon, Beverly, Mass.) to remove any excess Iodine and T3/T4 thyroid hormones.
# [2] = molecular target: T2, BMP-4 (Homo sapiens, UniProt P12644); test: BIAcore surface plasmon resonance, binding to immobilized BMP-4; conditions: Table 1; ligand BMP-4
# T2 sequence (P12644 293-408): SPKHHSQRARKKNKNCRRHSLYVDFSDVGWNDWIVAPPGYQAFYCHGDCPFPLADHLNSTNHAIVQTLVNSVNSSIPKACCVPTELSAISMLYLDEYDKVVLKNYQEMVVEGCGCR
# Experimental: (§1) In this system, a purified protein serving as the ligand is covalently coupled to a carboxymethylated dextran surface, and binding molecules (i.e. the analyte) are passed in a fluid phase across the surface. Binding of the analyte to ligand causes a change in reflected light which is directly proportional to mass bound, and is measured in arbitrary response units (R.U.). Analyte-ligand binding is observed as both increasing response with time during the injection of analyte, and the difference in the position of the baseline before and after injection.
# (§2) Schuster, R. V. Swanson, L. A. Alex, R. B. Bourret, M. I. Simon, Nature 365, 343 (1993). 1000 R.U. equals approximately 1 ng/mm^2. The running buffer was 20 mM Hepes (pH 7.2), 150 mM NaCl and the flow rate for all sensorgrams was 3 μl/min.
# Regeneration of the surface to remove bound analyte was done by injection of 10 μl of 20 mM NaOH. To cyclize TRH1 peptides, the material was reduced with 5 mM DTT then brought to a final concentration of 60 μM in 25 mM ammonium acetate (pH 8.5). […]
# Data was analyzed using the BIA-evaluation software (Pharmacia Biosensor). The association rate constant, kass, was calculated by first plotting the change in response with time versus response (i.e. dR/dT vs R). […] The affinity constants were calculated from KD =kdiss /kass. […]
# [3] = molecular target: T3, BMP-2 (Homo sapiens, UniProt P12643); test: BIAcore surface plasmon resonance, binding to immobilized BMP-2; conditions: for kass: ligand BMP-2
# T3 construct: Genetics Institute, Cambridge, Mass; (gift)
# T3 sequence (P12643 283-396): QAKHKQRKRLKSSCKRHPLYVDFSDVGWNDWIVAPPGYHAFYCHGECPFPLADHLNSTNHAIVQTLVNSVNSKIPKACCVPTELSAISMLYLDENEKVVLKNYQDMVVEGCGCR
# Experimental: as §1, §2
# (§3) Regeneration of the surface to remove bound analyte was done by injection of 10 μl of 20 mM NaOH. To cyclize TRH1 peptides, the material was reduced with 5 mM DTT then brought to a final concentration of 60 μM in 25 mM ammonium acetate (pH 8.5). After stirring in the dark for 30 min at 20° C. with 30 mM potassium ferricyanide, the peptide was mixed with AG3-X4A resin (BioRad), filtered, lyophilization and desalted on a 50×2.5 cm column of Biogel P2 (Pharmacia) developed in water, and further purified by reverse phase HPLC.
# (§4) Injection volumes were 36 μl for FIG. 2, 4 and 5 and 45 μl for FIG. 3. […] Protein concentrations in each experiment were (FIGS. 2 and 3), 2, 5, 10, 20, 30, 40 μM; (FIG. 4), 0.21, 0.31, 0.41, 0.62, 0.82, 1.24 μM; (FIG. 5), 0.22, 0.29, 0.44, 0.59, 0.88 μM. R.U. for the immobilized cytokine in each experiment was 2850 R.U. for FIGS. 2 and 3; 7450 R.U. for FIG. 4, and 5300 R.U., for FIG. 5 respectively.
# (§5) Data was analyzed using the BIA-evaluation software (Pharmacia Biosensor). The association rate constant, kass, was calculated by first plotting the change in response with time versus response (i.e. dR/dT vs R). When the slope of the line from this graph is plotted versus analyte concentration (i.e d(dR/dT)/dR vs C), kass is obtained from the slope of the line. The dissociation rate constant, kdiss, is obtained during the decrease in response with time after analyte injection is discontinued. Specifically, kdiss was obtained from the slope of the line in a plot of ln(Rt1 /Rtn) vs time. The affinity constants were calculated from KD =kdiss /kass. Variance for kass is standard error of the linear regression plot, and for kdiss values are the mean ± range of 3 or more independent injections.
# [4] = molecular target: T4, TGF-β2 (Homo sapiens, UniProt P61812); test: BIAcore surface plasmon resonance, binding to immobilized TGF-β2; conditions: Table 1; ligand TGF-β2
# T4 construct: The mature processed cytokines produced from the members of the gene family show almost 100% amino acid identity between species
# T4 sequence (P61812 303-414 limits assumed): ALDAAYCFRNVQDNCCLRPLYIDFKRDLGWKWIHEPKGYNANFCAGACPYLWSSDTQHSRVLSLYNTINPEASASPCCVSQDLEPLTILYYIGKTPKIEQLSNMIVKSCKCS
# Experimental: as §1, §2, §3
# as §5, with “Variance for kass is standard error of the linear regression plot, and for kdiss values are the mean ± range of 3 or more independent injections.” left out
# [5] = molecular target: T1, TGF-β1; test: BIAcore surface plasmon resonance, binding to immobilized TGF-β1; conditions: for kass: ligand TGF-β1
# Experimental: as §1, §2, §3, §4, §5
# [6] = system: rat bone marrow stromal cells; test: Dexamethasone-treated rat bone marrow stromal cell cultures (proliferation, mineralization, TGF-β levels); assay type: cell-based; conditions: dexamethasone 10^-8 M, FIG. 17
# Experimental: The methods used in the studies described in this example and illustrated in FIGS. 16 and 17 are as follows. Femoral bones were removed under aseptic conditions from adult male Wistar rats (120 g), cleaned of adherent soft tissues, and washed extensively in antibiotics. The distal ends were removed and the marrow contents were flushed out with 10 ml of culture medium. The cells were dispersed by repeated passage through a 20 gauge needle and incubated in alpha-MEM supplemented with 15% fetal bovine serum, ascorbic acid (50 μg/ml), antibiotics (penicillin G 100 μg/ml, gentamicin 50 μg/ml, fungizone 0.3 μg/ml) and 10 mM β-glycerophosphate. […] Following 6 days of culture at 37° C. in a humidified atmosphere containing 5% CO2 in air, the cells were re-plated at a density of 1×10^2 cell/mm^2 in 96 multi-well plates (Falcon 3047), and grown for another 12-14 days. At the end of culture, the cells were fixed and stained for calcium with alizarin red-s for quantification of bone nodule area (reported as mineralized area (mm^2)/well). To assess mineralized tissue formation in the cultures morphometric measurements were carried out with the aid of a Bioquant IV system (Bioquant, Nashville, Tenn., U.S.A.) using a Leitz Orthoplan microscope. TGF-β in culture supernatants taken 4 days prior to scoring mineralization were measured with and without heat activation (80° C. for 10 min) using the Mink cells as the indicator cell line as described in FIG. 12.
# [7] = molecular target: T5, TGF-β1 binding to TβRII (Homo sapiens, UniProt P01137); test: Competition of TGF-β1 binding to immobilized TβRII (Quantikine ELISA); conditions: 40 pM TGF-β1; fetuin 40 μM, TRH1 peptide from TβRII 20 μM; FIG. 14
# T5 construct: The mature processed cytokines produced from the members of the gene family show almost 100% amino acid identity between species; purchased R&D Systems
# Experimental: Inhibition of TGF-β1 binding to TβRII was carried out using the Quantikine ELISA kit (R&D Systems). In particular, 96 well plates were pre-coated with the extracellular domain of TβRII. […] This was followed by a 5 minute incubation with the TβRII coated ELISA wells with shaking, washing as recommended, and a 1 hr incubation with the polyclonal anti-TGF-β1 antibody. Plates were developed as per the instructions, and determinations were made in triplicate.
# [8] = Table 2 (calculations repeated)
# T1 sequence (P01137 279-390 limits assumed): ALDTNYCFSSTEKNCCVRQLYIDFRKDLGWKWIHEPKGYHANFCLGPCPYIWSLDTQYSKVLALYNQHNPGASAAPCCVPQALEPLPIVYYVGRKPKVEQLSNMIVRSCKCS
# T5 sequence (P01137 279-390 limits assumed): as above
compound,measurement,setting,value
"Thyroglobulin: Bovine thyroglobulin (Sigma), contains the TRH1 domain","Maximal effect, percent neutralization","[1]; 12 pM TGF-β1, FIG. 1",approximately 150%
same,"IC50 for inhibition of TGF-β1 activity, fold lower than for fetuin",[1]; FIG. 1,20 fold
same,kass,[2],54000 ± 7000 M⁻¹ s⁻¹
same,kass,[3]; Table 1,32000 ± 2000 M⁻¹ s⁻¹
same,kass,[4],1300 ± 600 M⁻¹ s⁻¹
CC[C@H](C)[C@@H]1NC(=O)[C@H](CC(=O)O)NC(=O)[C@@H](N)CSSC[C@@H](C(=O)O)NC(=O)[C@H](CCCCN)NC(=O)[C@H]([C@@H](C)O)NC(=O)[C@H](Cc2ccccc2)NC(=O)[C@H](CC(C)C)NC(=O)[C@H](C(C)C)NC(=O)[C@H](CO)NC(=O)[C@H](Cc2ccccc2)NC(=O)[C@H](CCC(N)=O)NC(=O)CNC(=O)[C@H](CC(=O)O)NC(=O)[C@H](CCC(N)=O)NC(=O)[C@H](CCCCN)NC(=O)[C@H](CC(C)C)NC(=O)[C@H](C(C)C)NC(=O)[C@H](Cc2c[nH]cn2)NC1=O [TRH1b (fetuin)] (H-CDIHVLKQDGQFSVLFTKC-OH; disulfide 1-19; N-terminus and C-terminus assumed),kass,[3]; [8],1300 ± 500 M⁻¹ s⁻¹
same,Competition of fetuin-BMP-2 binding,"[3]; co-injected with fetuin, data not shown, listed as fetuin TRH1b peptide",competed for fetuin-BMP-2 binding in a dose dependent manner
human transferrin: non-binding control protein [reference compound],binding to immobilized TGF-β1 (in words),[5],non-binding
"reduced and alkylated fetuin: fetuin, reduced and alkylated",binding to immobilized BMP-2 (in words),[3],diminished binding
same,binding to immobilized TGF-β1 (in words),[5],diminished binding
CC[C@H](C)[C@H](NC(=O)[C@H](CC(=O)O)NC(=O)[C@@H](N)CSCC(N)=O)C(=O)N[C@@H](Cc1c[nH]cn1)C(=O)N[C@H](C(=O)N[C@@H](CC(C)C)C(=O)N[C@@H](CCCCN)C(=O)N[C@@H](CCC(N)=O)C(=O)N[C@@H](CC(=O)O)C(=O)NCC(=O)N[C@@H](CCC(N)=O)C(=O)N[C@@H](Cc1ccccc1)C(=O)N[C@@H](CO)C(=O)N[C@H](C(=O)N[C@@H](CC(C)C)C(=O)N[C@@H](Cc1ccccc1)C(=O)N[C@H](C(=O)N[C@@H](CCCCN)C(=O)N[C@@H](CSCC(N)=O)C(=O)O)[C@@H](C)O)C(C)C)C(C)C [TRH1b (fetuin) (reduced & alkylated)] (H-C(Cam)DIHVLKQDGQFSVLFTKC(Cam)-OH; N-terminus and C-terminus assumed),binding to immobilized BMP-2 (in words),[3],no significant binding
"C[C@@H]1C[C@H]2[C@@H]3CCC4=CC(=O)C=C[C@]4(C)[C@@]3(F)[C@@H](O)C[C@]2(C)[C@@]1(O)C(=O)CO [Dexamethasone, dexamethasone, reference compound]",increase of the fraction of active TGF-β in the cultures,[6],3 fold
CC[C@H](C)[C@@H]1NC(=O)[C@H](CC(N)=O)NC(=O)[C@H](CCC(=O)O)NC(=O)[C@H](CC(=O)O)NC(=O)[C@H](CC(N)=O)NC(=O)[C@H](CCCCN)NC(=O)[C@H](CCCNC(=N)N)NC(=O)[C@H](Cc2c[nH]c3ccccc23)NC(=O)[C@H](C(C)C)NC(=O)[C@H](C)NC(=O)[C@H](C(C)C)NC(=O)[C@@H](N)CSSC[C@@H](C(=O)O)NC(=O)[C@H](C(C)C)NC(=O)[C@H]([C@@H](C)O)NC(=O)[C@H](CCC(=O)O)NC(=O)[C@H](CC(C)C)NC(=O)[C@H]([C@@H](C)O)NC1=O [TRH1b (TβRII)],inhibition of TGF-β1 binding to immobilized recombinant TβRII,[7],competitive inhibitors
same,kass,[5]; Table 1,3700 ± 2900 M⁻¹ s⁻¹
same,kass,[5]; [8],2200 ± 1300 M⁻¹ s⁻¹
